Experimental data: PMC12013513, “Anillin mediates unilateral furrowing during cytokinesis by limiting RhoA binding to its effectors” (The Journal of Cell Biology, 2025)

T1: GST-ANI-1^C-term (681-1159 AA) (C. elegans, UniProt Q9XTT4 681-1159)
T1 construct: ANI-1 (anillin homolog), C. elegans, residues 681-1159 comprising the RBD, C2 region and PH domain; Cloned into pGEX-4T; used on the beads directly in the pull-down; also called GST-tagged C-terminus of ANI-1; anillin C-terminus; source: E. coli BL21 (DE3), purified on Glutathione Sepharose 4B beads
T1 sequence (looked up): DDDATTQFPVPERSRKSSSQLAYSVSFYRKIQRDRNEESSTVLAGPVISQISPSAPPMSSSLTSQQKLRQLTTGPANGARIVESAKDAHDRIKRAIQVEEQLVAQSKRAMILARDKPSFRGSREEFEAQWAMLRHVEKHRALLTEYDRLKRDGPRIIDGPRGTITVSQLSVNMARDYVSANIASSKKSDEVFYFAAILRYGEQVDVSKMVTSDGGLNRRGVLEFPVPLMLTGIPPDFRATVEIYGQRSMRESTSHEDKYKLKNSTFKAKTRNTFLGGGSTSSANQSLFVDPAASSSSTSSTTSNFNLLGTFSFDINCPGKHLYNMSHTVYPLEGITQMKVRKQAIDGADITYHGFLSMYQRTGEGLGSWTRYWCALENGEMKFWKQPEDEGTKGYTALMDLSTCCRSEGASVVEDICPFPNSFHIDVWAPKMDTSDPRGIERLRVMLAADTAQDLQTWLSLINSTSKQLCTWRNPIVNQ

T2: GST-ANI-1^Link+C-term (460-1159 AA) (C. elegans, UniProt Q9XTT4 460-1159)
T2 construct: ANI-1 (anillin homolog), C. elegans, residues 460-1159: linker region, RBD, C2 region and PH domain; Cloned into pGEX-4T; used on the beads directly in the pull-down; also called protein consisting of the linker region and C-terminus; source: E. coli BL21 (DE3), purified on Glutathione Sepharose 4B beads
T2 sequence (looked up): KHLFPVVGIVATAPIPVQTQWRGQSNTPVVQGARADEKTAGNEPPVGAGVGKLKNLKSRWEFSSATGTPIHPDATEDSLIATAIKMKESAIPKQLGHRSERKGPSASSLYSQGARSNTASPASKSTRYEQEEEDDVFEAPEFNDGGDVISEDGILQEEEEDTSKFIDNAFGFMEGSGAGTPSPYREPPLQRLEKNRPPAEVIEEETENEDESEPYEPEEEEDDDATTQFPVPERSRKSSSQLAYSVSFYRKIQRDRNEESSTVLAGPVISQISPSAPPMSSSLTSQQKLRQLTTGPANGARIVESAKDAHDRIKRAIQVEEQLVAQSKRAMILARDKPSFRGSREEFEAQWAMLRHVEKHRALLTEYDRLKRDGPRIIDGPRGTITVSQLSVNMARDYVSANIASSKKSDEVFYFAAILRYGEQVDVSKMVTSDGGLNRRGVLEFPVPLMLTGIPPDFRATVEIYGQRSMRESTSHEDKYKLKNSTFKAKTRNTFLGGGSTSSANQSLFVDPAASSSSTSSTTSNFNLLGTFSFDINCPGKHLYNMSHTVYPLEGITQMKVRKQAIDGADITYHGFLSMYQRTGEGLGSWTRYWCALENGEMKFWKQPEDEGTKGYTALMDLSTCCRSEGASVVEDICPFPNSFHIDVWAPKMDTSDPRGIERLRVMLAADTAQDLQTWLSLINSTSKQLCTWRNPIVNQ


Key:
[1] = target: T1, GST-ANI-1^C-term (681-1159 AA); test: pull-down; ~4 μg GST-ANI-1 fragment on Glutathione Sepharose beads mixed with ~4 μg purified 10xHis-RHO-1 in 300 μl binding buffer (20 mM Tris pH 7.4, 150 mM NaCl, 5 mM MgCl2, 0.1% Triton X-100, 1 mM DTT) with 1 mM GTP, 4°C, 1.5 h; bound RHO-1 detected by anti-His immunoblot; conditions: both partners purified
[2] = target: T2, GST-ANI-1^Link+C-term (460-1159 AA); test: as above; conditions: both partners purified

Binder | binding result [1] | binding result [2]
10xHis-RHO-1^WT (wild type RHO-1, 1-188 AA) (domain or fragment, RHO-1 (RhoA in humans), C. elegans, residues 1-188 (without the CAAX motif), amplified from cDNA; Cloned into pET-19b; also called His-tagged RHO-1; RhoA; source: E. coli BL21 (DE3), purified (Ni-NTA)) not shown | binds | 
10xHis-RHO-1^Q63L (constitutively active RHO-1, 1-188 AA) (domain or fragment, RHO-1 (RhoA in humans), C. elegans, residues 1-188, with Q63L made by site-directed mutagenesis of the wild type construct; Cloned into pET-19b; source: E. coli BL21 (DE3), purified (Ni-NTA)) not shown | binds | binds
